Common to all, as to format: cell-based
For assay [1], the system named is gene editing with Cas9 and dCas9. Put plainly: Screen of 322 new SSAP proteins, activity across all experiments (Cas9 and dCas9, Table 5). More on the design: scale not given here. A digest of the protocol:
(§1)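 Editing screen of 322 newly identified, synthesized SSAPs, each co-used with Cas9 and with dCas9.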

The subject of a further assay is gene editing with dCas9. In words: Screen of 322 new SSAP proteins, gene editing activity with dCas9 (Table 5). More on the design: dCas9 with SSAP activity: scale not given here. Summed up:
as §1

In a further assay the test system is gene editing with Cas9. Put plainly: Screen of 322 new SSAP proteins, gene editing activity with Cas9 (Table 5). Further details: Cas9 with SSAP activity: scale not given here. Summed up:
as §1

B1: SSAP_176: SEQ ID NO: 345; Absicoccus porci (protein, listed as Absicoccus porci)
chain: TTTNQQGMITKKANNSVAKKTNRTMKDYITMYQGEIAKALPSVMTPERFVRIATTAVTNTPKLASCTPQSFIGALLNAAQLGLEPNTPLGQAYLIPYGNQCQFQIGYLGMVELAQRAGTNVDAHVVYANDEFDYSLGLHPDIKHVPAMKDRGEAIAYYAVWHNGENFGFEVMSREDVEKHMKKYSKTYSNGPWKTEFDEMAKKTVLKRALKYAPKKTDLARAVMQDETIKQFNPKADNDMADAKNDFFDVEYDEVDENTDPVTGEVK
For the molecule B1, in assay [1], the “Activity across all experiments” value is reported as −1.789. In the assay on gene editing with dCas9, the “dCas9 with SSAP activity” value was −4.682 and the “dCas9 with SSAP activity (normalized)” value is −0.680. Moreover, in the assay on gene editing with Cas9, the “Cas9 with SSAP activity” value was determined as 1.105 and the “Cas9 with SSAP activity (normalized)” value is 2.418.

B2: SSAP_244: SEQ ID NO: 413; Nicoletella semolina (protein, listed as Nicoletella semolina)
chain: LKNADPQSVFNAACMAATLNLPIQNGLGFAYIVPYQNKKEKKTEAQFQLGYKGLIQLAQRSGQFKRLVAVPVYEKQLIAEDPINGFEFDWKQKPENGEKPIGYYAYFKLLNDFTAELYMTTHEVDEHAQRYSQTYRTYLDKKSKGQWASSVWADNFEAMALKTVMKLLLSKQAPLSVEMQQAVLADQAVVKNVETNEFSYVDNQIEEAEYTELKVSTDIFEKCKQSILNKETTLQELCDSGYEFSQEQYAELEKLEVE
Take B2: in assay [1], the “Activity across all experiments” value is reported as −6.718. In the assay with gene editing with dCas9, the “dCas9 with SSAP activity” value is −4.966 and the “dCas9 with SSAP activity (normalized)” value is listed as −0.819. In addition, the “Cas9 with SSAP activity” value in the assay with gene editing with Cas9 is −8.469.

B3: SSAP_28: SEQ ID NO: 197 (protein)
chain: AITPNPIPAQDGSPIPSPDDIVGELARRKIYAGIPDDDVALALALCQKYGFDPLLKHLVLLATKDRDETTGQGQKHYNAYVTRDGLLHVAHTSGMLDGLETIQGKDDLGEWAEAVVYRKDMSRPFRYRVYLSEYVREAKGVWKTHPQAMLTKTAEVFALRRAFDVALTPFEEMGFDNQNIAGDTGPSPKTGFTEKAGFTGNTDFSAEASLPGKARFSTEAGLTDMTVIPPNRVTGSIPETSRLNTSAGSTGRQRRQLF
As to B3, in assay [1], the “Activity across all experiments” value was −2.227. In the assay on gene editing with dCas9, the “dCas9 with SSAP activity” value is −4.957 and the “dCas9 with SSAP activity (normalized)” value was −0.886. Moreover, in the assay with gene editing with Cas9, the “Cas9 with SSAP activity” value is listed as 0.503 and the “Cas9 with SSAP activity (normalized)” value stood at 0.506.

B4: SSAP_62: SEQ ID NO: 231 (protein)
chain: SEISKAVATQQNPLAVVARYKRELGTVLPTVLRQDPDRWLMAAENAARKNPDIMAVTKADQGASYMRALVECARLGHEPGSKDFHFIKRGNAISGEESYRGIIKRVLNSGFYRSVVARTVFSNDTYSFDPLTDIVPNHVPAQGDRGKPLSAYAFAVHWDGTPSTVAEATPERIATAKAKSFASDKPTSPWQLPTGVMYRKTAIRELEPYVHVAPEPQPRRHLDGTVGGIPATDFDVDDGDVLDITADQLAEAGEIV
On to B4, for which the “Activity across all experiments” value in assay [1] is −3.538. For the same molecule, in the assay with gene editing with dCas9, the “dCas9 with SSAP activity” value is reported as −4.940 and the “dCas9 with SSAP activity (normalized)” value is −0.604. Further, in the assay with gene editing with Cas9, the “Cas9 with SSAP activity” value was −2.135 and the “Cas9 with SSAP activity (normalized)” value is −1.289.

B5: SSAP_27: SEQ ID NO: 196 (protein)
chain: SNNQLSTQQAKRDIAIDTSVWTFQDVKRYFDPQNLLTEKQVGQALSLIKGRNLNPLANEVYIVAYKKKTGGTEFSLIVSKEAFLKRAAQNPNYEGFEAGVVTVDTDGVMHERKGALMLPGDTLVGGWARVYRKNFKVPVEIFVSREEYDKKQSTWNAMPATMIRKTALVNALREAFPEDLGNMYTEDDGGETFDRIKQAEPVESREDVMARKMAQIEQMKQEQAQRQIDTSYPTDDVIDPDDEPAQGELLEDLEY
Take B5: the “Activity across all experiments” value in assay [1] is listed as −3.661. In the assay on gene editing with dCas9, the “dCas9 with SSAP activity” value is −4.680 and the “dCas9 with SSAP activity (normalized)” value is listed as −0.675. Moreover, in the assay on gene editing with Cas9, the “Cas9 with SSAP activity” value was −2.642 and the “Cas9 with SSAP activity (normalized)” value is given as −0.956.

B6: SSAP_227: SEQ ID NO: 396; Streptococcus parauberis (protein, listed as Streptococcus parauberis)
chain: ANQLTVVNTLQSDAVKEKFEAVMGEKANGFVSSVLSVVTNNNILSKADFNSVYTSAMKAAVLDLPVEPSLGMAHIVPYKGKAQFQIGYKGLIQLALRSGQVVGLNAGKVYEGQFKSFNALTEKLDIVDIYNPKKDEPIVGYFAYMKLSNGFEKTTYWTKEQVEEHGKKYSQSYDSKFSPWQTNFDAMARKTVLKSILSTYAPLTIEMQNANDFDNGKNTGIEPLEVKDVTPETDNESLLTDLLEDEPSVNTETGEIIEDTELDLDYGQINAK
In the case of B6, the “Activity across all experiments” value in assay [1] is listed as −2.575. In the assay with gene editing with dCas9, the “dCas9 with SSAP activity” value is listed as −4.819 and the “dCas9 with SSAP activity (normalized)” value was −0.774. In the assay with gene editing with Cas9, the “Cas9 with SSAP activity” value is −0.330 and the “Cas9 with SSAP activity (normalized)” value is given as −0.310.

B7: SSAP_251: SEQ ID NO: 420; Hathewaya proteolytica (protein, listed as Hathewaya proteolytica)
chain: ADSKKELILKESYSVLDRLIETKISAMPKDFNRTRFLQNCMTVLQDTKDIEKCQPISVARTLLKGAFLGLDFFQKECYAIPYGGTLQFQTDYKGETKMAKKYSIRPIKDIYAKVVREDDLFEEEIKEGQQFVNFKPIPFSDKPIIGAFAVVLYQDGGMEYETMSKTQIEGIRDNFSKMKNGLMWTKTPEEAYKKTVLRRLTKKIEKDFDTIEQAKTYEETSDSEFKKEEKCNEKSVFDVEYSEVESEELEQQTMLENSPFGGEQ
As for B7, in assay [1], the “Activity across all experiments” value is listed as −3.012. In addition, in the assay with gene editing with dCas9, the “dCas9 with SSAP activity” value was −5.041 and the “dCas9 with SSAP activity (normalized)” value was −0.760. In the assay with gene editing with Cas9, the “Cas9 with SSAP activity” value is −0.983 and the “Cas9 with SSAP activity (normalized)” value is given as −1.345.

B8: SSAP_259: SEQ ID NO: 428; Virgibacillus chiguensis (protein, listed as Virgibacillus chiguensis)
chain: ATNSSLKNQIANKGNGNQNTPQGYTVKQLMSASSVKNRFEETLGKKAPQFMASVINLVNGDTNLQKCDQMSVVSSAMVAAALDLPIDKNLGYAWVVPYGNKATFQMGYKGYIQLALRTGQYKNINVIEVYEGEVKSFNRLTEEIELEFEGKESDKVIGYVGYFELINGFRKTVYWSKDEIERHKKRFSKTGFAWKDNYDAMAKKTVIRNMLNKWGILSIDMQTAVTTDGNAVTQDFEQEDSGLVIDAEFSEVNEASEGQQEIKFENADA
As to B8, in assay [1], the “Activity across all experiments” value is reported as −3.807. Further, in the assay with gene editing with dCas9, the “dCas9 with SSAP activity” value was −4.841 and the “dCas9 with SSAP activity (normalized)” value is on record as −1.414. For the same molecule, in the assay on gene editing with Cas9, the “Cas9 with SSAP activity” value is −2.773 and the “Cas9 with SSAP activity (normalized)” value is listed as −0.529.

B9: SSAP_170: SEQ ID NO: 339; Dorea longicatena (protein, listed as Dorea longicatena)
chain: TVGKTDEIKQELARKVENTKAGTKLKKSMSIADMIKVMEPQIKKALPEVITPERFTRMALSALNTTPKLNECTPMSFLAALMNAAQLGLEPNTPLGQAFLIPYNNKGKMECQFQLGYKGLIDLSYRNPNMQIITAHTVYENDEFEYELGLNPCLDHRPTLGERGEIRLFYGLFKLTNGGFGFEVMSKTAMDDFAKEYSKAFDSSFSPWRTNYESMALKTIIKKALKYAPLKSEFRNALSTDETIKNEIGADMSEINSENIFDTVYQEECA
With B9, the “Activity across all experiments” value in assay [1] is −1.184. Also, in the assay with gene editing with dCas9, the “dCas9 with SSAP activity” value is recorded as −4.682 and the “dCas9 with SSAP activity (normalized)” value is given as −0.968. Further, in the assay on gene editing with Cas9, the “Cas9 with SSAP activity” value stood at 2.314 and the “Cas9 with SSAP activity (normalized)” value amounted to 1.852.

B10: SSAP_74: SEQ ID NO: 243 (protein)
chain: SNPPLAQADLQKTQGTEVKTKTKDQQLIHFINQPSMKAQLAAALPRHMTPDRMIRIVTTEIRKTPALANCDMQSFIGAVVQCSQLGLEPGNALGHAYLLPFGNGKAKSGQSNVQLIIGYRGMIDLARRSNQIISISARTVRQGDSFHFEYGLNENLTHVPGENEDSPITHVYAVARLKDGGVQFEVMTHNQIEKVRASSKAGQNGPWVSHWEEMAKKTVIRRLFKYLPVSIEMQKAVILDEKAEANVDQENASVFEGEFEEVSQSA
As to B10, the “Activity across all experiments” value in assay [1] is recorded as 0.781. In the assay with gene editing with dCas9, the “dCas9 with SSAP activity” value stood at 0.668 and the “dCas9 with SSAP activity (normalized)” value came out at 0.984. In addition, in the assay on gene editing with Cas9, the “Cas9 with SSAP activity” value amounted to 0.893 and the “Cas9 with SSAP activity (normalized)” value is 0.751.

B11: SSAP_140: SEQ ID NO: 309; Staphylococcus equorum (protein, listed as Staphylococcus equorum)
chain: ATNETLKQKVVERKPNGVKEQSPKTQLNHLLKKMAPEIQRALPKHMDSDRMARIAMTAVSNTPKLLECDQMSFIAALMQASQLGVEPNTGLGQAYLIPYAGKVQFQLSYKGLIDLATRSGQYKSIYAHEVYTNDEFEYRYGLFKDLIHIPSQEPEGNPIGYYAVYHLKNGGYDFVYWTRERVDKHAKEFSQAVQKGWTSPWITNYDAMAKKTVLKEVLKYAPKSIEMNKAVENDSTIKEEIDKDMSTVIDVTDYSEVEEQESLETGGQTSK
For the molecule B11, the “Activity across all experiments” value in assay [1] is on record as −3.187. Moreover, in the assay on gene editing with dCas9, the “dCas9 with SSAP activity” value is listed as −5.000 and the “dCas9 with SSAP activity (normalized)” value is listed as −0.780. Further, in the assay on gene editing with Cas9, the “Cas9 with SSAP activity” value is listed as −1.374 and the “Cas9 with SSAP activity (normalized)” value is −0.848.

B12: SSAP_258: SEQ ID NO: 427; Clostridium thermopalmarium (protein, listed as Clostridium thermopalmarium)
chain: ATVNELKNEIATKKETGVGSAGNTIKGLINSPAIKKRFEDVLNKKAPQYMSSIVNLVNGDTNLKKCDQMSVIASCMVAATLDLPIDKNLGYAWIVPYGNRAQFQLGYKGYVQLALRTGQYKAINVIEVHEGELIEWNPLTEELKIDFSQKKSDAIIGYAGYFELLNGFKKSTYWTKEQIIRHKNKFSKSDFGWKKDFDAMAKKTVLRNMLSKWGILSIEMQNAYTADQATIRPEAVETGDIKGNVDYVEADFEENYEGTPFEEVEEGGVNE
With B12, in assay [1], the “Activity across all experiments” value is −4.014. Moreover, in the assay with gene editing with dCas9, the “dCas9 with SSAP activity” value is listed as −4.748 and the “dCas9 with SSAP activity (normalized)” value is reported as −0.956. Besides, in the assay on gene editing with Cas9, the “Cas9 with SSAP activity” value was −3.280 and the “Cas9 with SSAP activity (normalized)” value was −0.553.

For the origin of these results see patent US20250034594A1, “RNA-GUIDED GENOME RECOMBINEERING AT KILOBASE SCALE” (THE BOARD OF TRUSTEES OF THE LELAND STANFORD JUNIOR …, priority 2021, published 2025).
